{"source": "paper PMC9278858", "target": "Rpc160-HTP (largest subunit of RNAPIII, C-terminally His6–TEV–Protein A tagged) (S. cerevisiae) (UniProt P04051)", "sequence (P04051 whole entry)": "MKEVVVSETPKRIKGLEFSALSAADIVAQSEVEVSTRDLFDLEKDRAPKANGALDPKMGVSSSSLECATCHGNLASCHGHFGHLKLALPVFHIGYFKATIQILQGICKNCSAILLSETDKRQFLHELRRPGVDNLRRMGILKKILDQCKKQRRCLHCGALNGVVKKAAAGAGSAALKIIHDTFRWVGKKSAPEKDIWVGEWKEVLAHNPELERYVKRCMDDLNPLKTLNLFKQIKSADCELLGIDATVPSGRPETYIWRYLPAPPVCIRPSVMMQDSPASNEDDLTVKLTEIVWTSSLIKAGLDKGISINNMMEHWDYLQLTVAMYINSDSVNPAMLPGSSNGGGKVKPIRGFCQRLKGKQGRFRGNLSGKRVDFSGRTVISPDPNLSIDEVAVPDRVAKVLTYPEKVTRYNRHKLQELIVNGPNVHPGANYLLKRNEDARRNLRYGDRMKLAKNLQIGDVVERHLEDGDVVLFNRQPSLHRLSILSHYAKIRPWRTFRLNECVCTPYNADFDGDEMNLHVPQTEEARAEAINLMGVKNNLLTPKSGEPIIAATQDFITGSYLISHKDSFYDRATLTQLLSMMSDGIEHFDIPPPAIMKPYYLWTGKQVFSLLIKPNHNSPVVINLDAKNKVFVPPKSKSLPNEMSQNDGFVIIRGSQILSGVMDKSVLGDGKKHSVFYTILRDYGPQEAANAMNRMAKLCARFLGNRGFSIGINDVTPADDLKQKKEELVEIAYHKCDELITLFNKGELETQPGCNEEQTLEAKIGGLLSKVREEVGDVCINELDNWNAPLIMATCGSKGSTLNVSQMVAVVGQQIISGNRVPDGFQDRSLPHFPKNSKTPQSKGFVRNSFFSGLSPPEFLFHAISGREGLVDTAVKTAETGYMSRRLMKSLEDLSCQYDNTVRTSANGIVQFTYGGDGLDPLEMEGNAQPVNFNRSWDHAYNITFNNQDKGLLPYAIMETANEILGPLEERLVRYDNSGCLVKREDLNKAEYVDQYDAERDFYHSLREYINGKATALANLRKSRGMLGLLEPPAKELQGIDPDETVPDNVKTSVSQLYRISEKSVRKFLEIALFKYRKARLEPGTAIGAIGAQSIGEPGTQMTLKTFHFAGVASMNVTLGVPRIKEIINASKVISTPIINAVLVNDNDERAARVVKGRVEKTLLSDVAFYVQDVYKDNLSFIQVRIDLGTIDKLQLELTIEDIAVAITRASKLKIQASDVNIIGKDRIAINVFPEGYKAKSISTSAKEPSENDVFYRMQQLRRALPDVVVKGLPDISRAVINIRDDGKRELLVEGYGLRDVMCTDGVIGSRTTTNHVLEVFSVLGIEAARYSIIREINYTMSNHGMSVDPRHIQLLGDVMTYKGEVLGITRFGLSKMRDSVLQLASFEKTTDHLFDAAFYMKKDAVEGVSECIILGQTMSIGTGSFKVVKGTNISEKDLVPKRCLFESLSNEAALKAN", "experiment": "affinity purification with mass spectrometry; Rpc160-HTP as bait; as a3 but lysate treated with RNase A (20 μg/ml, 20 min at 25°C); label-free quantitative MS", "data": [{"substance": "Sen1 (untagged, in cells expressing Rpc160-HTP, SEN1 background) (from UniProt Q00416 1-2231) (natural protein)", "values": [{"measurement": "fold decrease of RNAPIII-bound Sen1 with RNase A treatment against no treatment", "result": 2, "unit": "fold"}]}]}
